Entries after “also recorded” stand apart in the source; their conditions may differ.
Key:
HPV-16 [1] = assay: qPCR sensitivity against HPV-HNSCC tumor samples diluted among 10 ng normal human DNA; conditions: for sensitivity under 100 cells / sensitivity under single cells / sensitivity under 10 cells: 32 HPV-HNSCC tumor samples; for sensitivity under single cells: 6.6 pg DNA; for sensitivity under 10 cells: 66 pg DNA; for Sensitivity, 1 cell / Sensitivity, 3 cells / Sensitivity, 10 cells / Sensitivity, 30 cells / Sensitivity, 100 cells: tumor DNA dilution, fraction of 32 samples
HPV-16 genome = assay: qPCR sensitivity against HPV-16 copy number (known-copy HPV-16 DNA among 10 ng normal human DNA); conditions: for number of reactions against 10 HPV-16 copies / number of reactions under 30 HPV-16 copies: samples tested 3 times, 10 ng DNA from healthy individual
Text: (§1) All samples were run in triplicates.
To seek the most promising primer-probe set in the viewpoint of sensitivity, Applicants evaluated the sensitivity analysis for these candidate primer-probe sets. […] Therefore, the sensitivity of E6 (FIG. 3A) and E7 (FIG. 3B) was also 30 copies. […] The candidate primer-probe sets were the “Min-4” (FIG. 3C), “Min-5” (FIG. 3D), “Min-6” (FIG. 3E), “Max-10” (FIG. 3F), “E6-11” (FIG. 3G), “E6-13” (FIG. 3H), respectively.
In addition, Applicants performed sensitivity analysis to identify the most sensitive primer/probe set from among the candidate sets.
To validate the function of primer/probe sets, Applicants calculated the slope of delta Rn against cycle threshold for HPV-16 copy number detection from defined HPV copy number DNA derived from CaSki cell line.

HPV-16 [2] = assay: qPCR on 20 ng DNA from saliva samples of HPV-HNSCC patients; conditions: 28 HPV-HNSCC saliva samples
Method: as §1
The sensitivity of detection from saliva 20 ng DNA samples is 32.1% (9/28) in E6 primer-probe sets, 42.9% (12/28) in E7 primer-probe sets, 35.7% (10/28) in “Min-5” primer-probe sets, 46.4% (13/28) in “Max-10” primer-probe sets. The sensitivity of combination of “5” and “10” is 50% (14/28) and that of E6 and E7 is 42.9% (12/28). By the standard curve analysis, the copy numbers that detected by “Max-10” primer-probe sets were the highest in these 4 primer-probe sets. The slope of standard curve is −3.5 in “Min-5” primer-probe sets when delta Rn is plotted against cycle threshold (FIG. 5).

[3] = among 10 ng normal DNA, triplicate qPCR

B1: BR E6-1: HPV-16 E6 region (172-373 bp) primer/probe set, SEQ ID NO: 58-60 (nucleic acid)
DNA 1: CAGTTACTGCGACGTGAGGT
DNA 2: ACAGCATATGGATTCCCATCTC
DNA 3: ACTTTGCTTTTCGGGATTTATGCATAGTA
modifications: chemistry not given here
Question: B1 was tested. Which “sensitivity under 100 cells” value (HPV-16 [1]) did it give?
Answer: Its value is 87.5%.

Question: What about the “sensitivity under single cells” value (HPV-16 [1]) of the same molecule?
Answer: The value was 3.1%.

Question: What about the “sensitivity under 10 cells” value (HPV-16 [1]) of the same molecule?
Answer: Its value is 46.9%.

Question: What about the “Threshold of tumor cell numbers for HPV-16 detection” value (“Threshold of tumor cell numbers” below) (HPV-16 [1]; Sample # 1) of the same molecule?
Answer: Its value is 150.0 tumor cells.

Question: What about the “Threshold of tumor cell numbers” value (HPV-16 [1]; Sample # 2) of the same molecule?
Answer: The value was 30.0 tumor cells.

Question: And the “Threshold of tumor cell numbers” value (HPV-16 [1]; Sample # 3)?
Answer: Its value is 150.0 tumor cells.

Question: What about the “Threshold of tumor cell numbers” value (HPV-16 [1]; Sample # 4) of the same molecule?
Answer: The value was 60.0 tumor cells.

Question: What about the “Threshold of tumor cell numbers” value (HPV-16 [1]; Sample # 5) of the same molecule?
Answer: Its value is 30.0 tumor cells.

Question: And the “Threshold of tumor cell numbers” value (HPV-16 [1]; Sample # 6)?
Answer: Its value is 60.0 tumor cells.

Question: And the “Threshold of tumor cell numbers” value (HPV-16 [1]; Sample # 7)?
Answer: The value was 30.0 tumor cells.

Question: And the “Threshold of tumor cell numbers” value (HPV-16 [1]; Sample # 8)?
Answer: Its value is 150.0 tumor cells.

Question: What about the “Threshold of tumor cell numbers” value (HPV-16 [1]; Sample # 9) of the same molecule?
Answer: Its value is 30.0 tumor cells.

Question: And the “Threshold of tumor cell numbers” value (HPV-16 [1]; Sample # 10)?
Answer: Its value is 30.0 tumor cells.

Question: What about the “Threshold of tumor cell numbers” value (HPV-16 [1]; Sample # 11) of the same molecule?
Answer: Its value is 30.0 tumor cells.

Question: What about the “Threshold of tumor cell numbers” value (HPV-16 [1]; Sample # 12) of the same molecule?
Answer: Its value is 15.0 tumor cells.

Question: And the “Threshold of tumor cell numbers” value (HPV-16 [1]; Sample # 13)?
Answer: The value was 60.0 tumor cells.

Question: What about the “Threshold of tumor cell numbers” value (HPV-16 [1]; Sample # 14) of the same molecule?
Answer: Its value is 60.0 tumor cells.

Question: What about the “Threshold of tumor cell numbers” value (HPV-16 [1]; Sample # 15) of the same molecule?
Answer: Its value is 30.0 tumor cells.

Question: What about the “Threshold of tumor cell numbers” value (HPV-16 [1]; Sample # 16) of the same molecule?
Answer: Its value is 6.0 tumor cells.

Question: What about the “Threshold of tumor cell numbers” value (HPV-16 [1]; Sample # 17) of the same molecule?
Answer: Its value is 6.0 tumor cells.

Question: And the “Threshold of tumor cell numbers” value (HPV-16 [1]; Sample # 18)?
Answer: Its value is 1.2 tumor cells.

Question: What about the “Threshold of tumor cell numbers” value (HPV-16 [1]; Sample # 19) of the same molecule?
Answer: Its value is 6.0 tumor cells.

Question: What about the “Threshold of tumor cell numbers” value (HPV-16 [1]; Sample # 20) of the same molecule?
Answer: The value was 1.2 tumor cells.

Question: What about the “Threshold of tumor cell numbers” value (HPV-16 [1]; Sample # 21) of the same molecule?
Answer: The value was 1.2 tumor cells.

Question: What about the “Threshold of tumor cell numbers” value (HPV-16 [1]; Sample # 22) of the same molecule?
Answer: Its value is 6.0 tumor cells.

Question: What about the “Threshold of tumor cell numbers” value (HPV-16 [1]; Sample # 23) of the same molecule?
Answer: Its value is 1.2 tumor cells.

Question: And the “Threshold of tumor cell numbers” value (HPV-16 [1]; Sample # 24)?
Answer: Its value is 1.2 tumor cells.

Question: What about the “Threshold of tumor cell numbers” value (HPV-16 [1]; Sample # 25) of the same molecule?
Answer: Its value is 1.2 tumor cells.

Question: And the “Threshold of tumor cell numbers” value (HPV-16 [1]; Sample # 26)?
Answer: Its value is 1.2 tumor cells.

Question: And the “Threshold of tumor cell numbers” value (HPV-16 [1]; Sample # 27)?
Answer: Its value is 1.0 tumor cells.

Question: And the “Threshold of tumor cell numbers” value (HPV-16 [1]; Sample # 28)?
Answer: The value was 1.0 tumor cells.

Question: And the “Threshold of tumor cell numbers” value (HPV-16 [1]; Sample # 29)?
Answer: The value was 1.0 tumor cells.

Question: And the “Threshold of tumor cell numbers” value (HPV-16 [1]; Sample # 30)?
Answer: The value was 150.0 tumor cells.

Question: What about the “Threshold of tumor cell numbers” value (HPV-16 [1]; Sample # 31) of the same molecule?
Answer: The value was 0.6 tumor cells.

Question: What about the “Threshold of tumor cell numbers” value (HPV-16 [1]; Sample # 32) of the same molecule?
Answer: The value was 15.0 tumor cells.

Question: What about the “Sensitivity, 1 cell” value (HPV-16 [1]) of the same molecule?
Answer: The value was 0.031.

Question: What about the “Sensitivity, 3 cells” value (HPV-16 [1]) of the same molecule?
Answer: Its value is 0.344.

Question: And the “Sensitivity, 10 cells” value (HPV-16 [1])?
Answer: The value was 0.469.

Question: What about the “Sensitivity, 30 cells” value (HPV-16 [1]) of the same molecule?
Answer: The value was 0.750.

Question: What about the “Sensitivity, 100 cells” value (HPV-16 [1]) of the same molecule?
Answer: The value was 0.875.

Question: What about the “reaction under 30 copies of HPV-16 genome” value (HPV-16 genome; [3]) of the same molecule?
Answer: Its value is “consistently amplified”.

Question: What about the “reaction under 30 copies of HPV-16 genome” value (HPV-16 genome; among 10 ng normal DNA, triplicate qPCR, listed as E6-11) of the same molecule?
Answer: Its value is “react consistently”.

Question: What about the “number of reactions against 10 HPV-16 copies” value (HPV-16 genome) of the same molecule?
Answer: Its value is “one”.

Question: What about the “number of reactions under 30 HPV-16 copies” value (HPV-16 genome) of the same molecule?
Answer: Its value is 3 reactions.

B2: E6: previously designed (historical) HPV-16 E6 primers and Taqman probe, SEQ ID NO: 7-9, positive control (nucleic acid)
DNA 1: TCAGGACCCACAGGAGCG
DNA 2: CCTCACGTCGCAGTAACTGTTG
DNA 3: CCCAGAAAGTTACCACAGTTATGCACAGAGCT
modifications: Taqman probe, labels not given here
Question: What does the source list for B2?
Answer: sensitivity under 100 cells (HPV-16 [1]): 90.6%; sensitivity under single cells (HPV-16 [1]): 12.5%; sensitivity under 10 cells (HPV-16 [1]): 53.1%; Threshold of tumor cell numbers for HPV-16 detection (HPV-16 [1]; Sample # 1): 150.0 tumor cells; Threshold of tumor cell numbers for HPV-16 detection (HPV-16 [1]; Sample # 2): 30.0 tumor cells; Threshold of tumor cell numbers for HPV-16 detection (HPV-16 [1]; Sample # 3): 6.0 tumor cells; Threshold of tumor cell numbers for HPV-16 detection (HPV-16 [1]; Sample # 4): 150.0 tumor cells; Threshold of tumor cell numbers for HPV-16 detection (HPV-16 [1]; Sample # 5): 30.0 tumor cells; Threshold of tumor cell numbers for HPV-16 detection (HPV-16 [1]; Sample # 6): 150.0 tumor cells; Threshold of tumor cell numbers for HPV-16 detection (HPV-16 [1]; Sample # 7): 30.0 tumor cells; Threshold of tumor cell numbers for HPV-16 detection (HPV-16 [1]; Sample # 8): 15.0 tumor cells; Threshold of tumor cell numbers for HPV-16 detection (HPV-16 [1]; Sample # 9): 60.0 tumor cells; Threshold of tumor cell numbers for HPV-16 detection (HPV-16 [1]; Sample # 10): 30.0 tumor cells; Threshold of tumor cell numbers for HPV-16 detection (HPV-16 [1]; Sample # 11): 60.0 tumor cells; Threshold of tumor cell numbers for HPV-16 detection (HPV-16 [1]; Sample # 12): 15.0 tumor cells; Threshold of tumor cell numbers for HPV-16 detection (HPV-16 [1]; Sample # 13): 6.0 tumor cells; Threshold of tumor cell numbers for HPV-16 detection (HPV-16 [1]; Sample # 14): 6.0 tumor cells; Threshold of tumor cell numbers for HPV-16 detection (HPV-16 [1]; Sample # 15): 6.0 tumor cells; Threshold of tumor cell numbers for HPV-16 detection (HPV-16 [1]; Sample # 16): 6.0 tumor cells; Threshold of tumor cell numbers for HPV-16 detection (HPV-16 [1]; Sample # 17): 30.0 tumor cells; Threshold of tumor cell numbers for HPV-16 detection (HPV-16 [1]; Sample # 18): 6.0 tumor cells; Threshold of tumor cell numbers for HPV-16 detection (HPV-16 [1]; Sample # 19): 1.2 tumor cells; Threshold of tumor cell numbers for HPV-16 detection (HPV-16 [1]; Sample # 20): 0.5 tumor cells; Threshold of tumor cell numbers for HPV-16 detection (HPV-16 [1]; Sample # 21): 1.2 tumor cells; Threshold of tumor cell numbers for HPV-16 detection (HPV-16 [1]; Sample # 22): 0.3 tumor cells; Threshold of tumor cell numbers for HPV-16 detection (HPV-16 [1]; Sample # 23): 1.2 tumor cells; Threshold of tumor cell numbers for HPV-16 detection (HPV-16 [1]; Sample # 24): 1.2 tumor cells; Threshold of tumor cell numbers for HPV-16 detection (HPV-16 [1]; Sample # 25): 0.3 tumor cells; Threshold of tumor cell numbers for HPV-16 detection (HPV-16 [1]; Sample # 26): 0.6 tumor cells; Threshold of tumor cell numbers for HPV-16 detection (HPV-16 [1]; Sample # 27): 15.0 tumor cells; Threshold of tumor cell numbers for HPV-16 detection (HPV-16 [1]; Sample # 28): 3.0 tumor cells; Threshold of tumor cell numbers for HPV-16 detection (HPV-16 [1]; Sample # 29): 3.0 tumor cells; Threshold of tumor cell numbers for HPV-16 detection (HPV-16 [1]; Sample # 30): 15.0 tumor cells; Threshold of tumor cell numbers for HPV-16 detection (HPV-16 [1]; Sample # 31): 3.0 tumor cells; Threshold of tumor cell numbers for HPV-16 detection (HPV-16 [1]; Sample # 32): 15.0 tumor cells; Sensitivity, 1 cell (HPV-16 [1]): 0.125; Sensitivity, 3 cells (HPV-16 [1]): 0.250; Sensitivity, 10 cells (HPV-16 [1]): 0.531; Sensitivity, 30 cells (HPV-16 [1]): 0.844; Sensitivity, 100 cells (HPV-16 [1]): 0.906; sensitivity of detection from saliva 20 ng DNA samples (HPV-16 [2]): 32.1%; sensitivity (HPV-16 copies) (HPV-16 genome; HPV-16 genome among normal 10 ng DNA samples, consistent triplicate reaction): 30 copies; reaction under 10 copies of HPV-16 genome (HPV-16 genome; [3]): reacted inconsistently; reaction under 30 copies of HPV-16 genome (HPV-16 genome; [3]): reacted consistently triplicate; also recorded: reacted consistently in triplicates; number of reactions against 10 HPV-16 copies (HPV-16 genome): one; number of reactions under 30 HPV-16 copies (HPV-16 genome): 3 reactions
